How the values were obtained:
[1] = system: rat model of retinal damage induced by light exposure; assay: Retinal protective effect in rat model of retinal damage induced by light exposure; type: in vivo
Experimental: Rat models of retinal damage induced by light exposure are models that induce the cell death of retinal photoreceptor cells by light exposure and are universally used as model animals of retinal degeneration (Daniel T. Organisciak et al., (1996) Invest Ophthalmol Vis Sci. Vol. 37 (No. 11): p. 2243-2257). A 0.5% (W/V) tropicamide-0.5% phenylephrine hydrochloride ophthalmic solution was ocularly instilled under adaptation to darkness to rats adapted to darkness for 72 hours. Then, the rats were exposed to white light of 5500 Lux for 3 hours. The rats thus exposed were adapted again to darkness for about 24 hours and then raised for 2 days under light-dark conditions of ordinary raising. After euthanasia, the eyeballs were excised and fixed by dipping in a 3.7% (W/V) formaldehyde-0.5 to 1% (W/V) methanol-0.2% (W/V) picric acid fixative for 24 hours or longer. After paraffin embedding, thin sliced sections were prepared. The sections were stained with hematoxylin-eosin, and a nucleus count in an outer nuclear layer of a cross-section of the retina was determined to evaluate retinal damage.
Immediately before light exposure of rats, 5 μL of HTRA1-inhibiting peptide H308 having a concentration of 0.04 mg/mL or 0.2 mg/mL was intravitreally administered under anesthesia. n=4 for a normal saline administration group, and n=5 for the other groups.
The retinal protective effects of three HTRA1-inhibiting peptides prepared in Example 6 were evaluated using the rat models of retinal damage induced by light exposure, constructed in Example (5-1). The operation followed Example 5. n=6 for all groups.

[2] = system: ARPE-19 cells (VEGF mRNA); assay: VEGF mRNA induction test using human retinal pigment epithelial cells ARPE-19; type: cell-based; conditions: 1 μM peptide co-added with H2O2 500 μM, normal human serum complement 25% and HTRA1 1 μM; 4 hours
Experimental: ARPE-19 cells were cultured until confluent in 12 mm Transwell with […] Pore Polyester Membrane Insert, Sterile (Corning Inc.) under conditions of 37° C. and 5% CO2 using a DMEM/F-12 medium (Wako Pure Chemical Industries, Ltd.) containing 10% fetal bovine serum (FBS) and penicillin-streptomycin (Thermo Fisher Scientific Inc.). Then, the cells were cultured in FBS-free DMEM/F-12 for 5 days. H2O2 (final concentration: 500 μM) was added to the upper and lower layers of the chamber, and normal human serum complement (Quidel Corp.) (final concentration: 25%) was added to the upper layer of the chamber. […] Four hours later, the culture supernatant was removed, and the cells were washed with PBS. Then, mRNA was extracted using SuperPrep™ Cell Lysis & RT Kit for qPCR (Toyobo Co., Ltd.) and subjected to a reverse transcription reaction. The mRNA level of VEGF was quantitatively analyzed by TaqMan Gene Expression Assays (Hs000900055_m1 and Hs02786624_g1; Thermo Fisher Scientific Inc.) using a 7900HT Fast Real-Time PCR System (Applied Biosystems, Inc.). GAPDH was used in the correction of the mRNA level.

[3] = system: human umbilical vein endothelial cells (HUVEC); assay: HUVEC migration test; type: cell-based; conditions: 300 nM in EGM growth medium; 2 hours
Experimental: HUVEC (Kurabo Industries Ltd.) was cultured for 18 hours under conditions of 37° C. and 5% CO2 in a medium (0.1% BSA-containing serum-free EGM) in which EBM™-2 basal medium (Lonza Walkersville, Inc.) containing 0.1% BSA was supplemented with an EGM™-2 SingleQuots™ additive factor set except for serum and VEGF. Then, the cells were adjusted to 4×10^5 cells/mL with 0.1% BSA-containing serum-free EGM. 4×10^5 cells/mL of the HUVEC suspension was added at 50 μL/well to the upper layer of a chamber of a Corning FluoroBlok HTS 96 Well Multiwell Permeable Support System with a […] High Density PET Membrane (Corning Inc.) having a gelatin-coated membrane. Then, each sample described below (medium 1, 2 or 3) was added at 210 μL/well to the lower layer of the chamber (n=3). […]
A FluoroBlok HTS 96 Well Multiwell Support System supplemented with the cells and the sample was incubated for 2 hours under conditions of 37° C. and 5% CO2. […] The fluorescence intensity (excitation wavelength/fluorescence wavelength: 485 nm/535 nm) of each well was measured using a plate reader (ARVO-MX, PerkinElmer, Inc.), and the migrated cells were counted for each well according to the following expression. Migrated cells=Mean fluorescence intensity of wells containing HUVEC (n=3)—Mean fluorescence intensity of blank wells (n=3).

[4] = system: HFD-HQ-loaded 3-year-old rabbits; assay: Protective effect on RPE cells in rabbit retinal damage model (HFD-HQ loading); type: in vivo; conditions: 50 μL of 40 mg/mL intravitreally 2 months after start of HFD-HQ; evaluated at 4 months; vs normal saline fellow eye
Source text: Retinal damage models prepared using high-fat diet (HFD) and hydroquinone (HQ) are models in which oxidative stress is induced by a pro-oxidant to cause retinal damage. These models have been reported only for mice (Diego G. Espinosa-Heidmann et al., (2006) Invest Ophthalmol Vis Sci., Vol. 47 (No. 2): p. 729-737). Accordingly, 3-year-old JW rabbits were fed for 4 months with RC4 (Oriental Yeast Co., Ltd.) diet containing 1.5% (W/V) coconut oil-0.25% (W/V) cholesterol-1.5% (W/V) peanut oil-2.4% (W/V) hydroquinone (HFD-HQ) to construct rabbit retinal damage models. After euthanasia, the eyeballs were excised, and the anterior segment of the eye was removed by an external incision of about 5 mm from the corneal limbus. The vitreous body was further separated. Then, retina-choroid-sclera was fixed by dipping in 4% (W/V) paraformaldehyde fixative for 24 hours or longer. […] The stained choroid was observed under a fluorescence microscope (BZ-9000; Keyence Corp.). The area of stained retinal pigment epithelial (RPE) cells was determined to evaluate RPE cell damage.
The retinal protective effect of the HTRA1-inhibiting peptide H308 prepared in Example 1 was evaluated using the rabbit models. […]
After 4 months from the start of feeding, RPE cell hypertrophy in the model animals was evaluated. […]

HTRA1 (cat) = target: T1, HTRA1 (cat) (Homo sapiens, UniProt Q92743); assay: HTRA1 (cat) inhibitory activity using peptide substrate H2-Opt (Example 3-1); type: biochemical; conditions: decomposition rate of H2-Opt; borate buffer pH 8.5; peptide 1.875 to 1,000 nM
T1 construct: The protease domain (158Gly to 373Lys), which excludes the N-terminal domain and the PDZ domain; made in house; host or cells: E. coli BL21 (DE3)
T1 sequence (Q92743 158-373): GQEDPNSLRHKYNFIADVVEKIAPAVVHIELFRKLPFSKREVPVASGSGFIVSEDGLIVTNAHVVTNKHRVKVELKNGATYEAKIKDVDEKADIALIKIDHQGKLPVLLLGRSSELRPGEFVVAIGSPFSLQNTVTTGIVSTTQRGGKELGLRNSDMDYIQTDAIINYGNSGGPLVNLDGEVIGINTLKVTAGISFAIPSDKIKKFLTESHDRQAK
Experimental: A substrate peptide H2-Opt (Mca-IRRVSYSFK(Dnp)K) (SEQ ID NO:66) (Peptide Institute, Inc.: SEQ ID NO: 54, FIG. 8) was dissolved at 10 mM in DMSO, diluted with an assay buffer (50 mM borate and 150 mM NaCl, pH 8.5), and used at a final concentration of 10 μM. HTRA1 (HTRA1 (cat) or HTRA1 (full)) and each HTRA1-inhibiting peptide diluted with an assay buffer were mixed at 25 μL each and reacted at 37° C. for 20 minutes. Then, 50 μL of the substrate diluted with an assay buffer was added thereto. A fluorescent signal (excitation at 328 nm/emission at 393 nm) was measured using Enspire (PerkinElmer, Inc.). The final concentration of HTRA1 was 100 nM, and the final concentration of the HTRA1-inhibiting peptide was 1.875 to 1,000 nM. PROTEOSAV® SS96F black plate (Sumitomo Bakelite Co., Ltd.) was used in the reaction and the measurement.
The substrate peptide decomposition rate of the HTRA1-inhibiting peptide at each concentration was calculated. When the decomposition rate at an inhibitor concentration of 0 nM was defined as 100%, the HTRA1 (cat) and HTRA1 (full) inhibitory activity of each HTRA1-inhibiting peptide was evaluated (FIGS. 2 and 3).

[5] = 0.2 and 1 μg/eye intravitreally, n=6

B1: H308_D1G_S16A: N-terminal derivative of H308, 1Asp substituted with Gly, with S16A, SEQ ID NO: 24 (FIG. 36) (protein)
chain: GPQFGLFSKYRTPNCADHAGMACVALYEPVCGSDMSTYENECVLCMKIREGGHNIKIIRNGPCGG
With B1 the “nucleus count in an outer nuclear layer on a cross-section of the retina” value (“nucleus count in an outer nuclear layer” below) [1, 5] was “suppressed a decrease in nucleus count in an outer nuclear layer”, the “expression of VEGF mRNA” value [2] was “confirmed to suppress the expression of VEGF” and the “migration of HUVEC induced in serum-containing medium” value [3] was “suppressive effect on the migration of HUVEC”.

B2: H321AT_D1G_S16A: HTRA1-inhibiting peptide derivative, amino acid sequence SEQ ID NO: 28 (FIG. 40) (protein)
chain: GPQFGLFSKYRTPNCADFDGMACYAFYEPVCGSDMSTYANECTLCMKIREGGHNIKIIRNGPCGG
B2 was tested, and the “nucleus count in an outer nuclear layer” value [1, 5] was “suppressed a decrease in nucleus count in an outer nuclear layer”.

B3: H322AT_D1G_S16A: HTRA1-inhibiting peptide derivative, amino acid sequence SEQ ID NO: 29 (FIG. 41) (protein)
chain: GPQFGLFSKYRTPNCAQHEGMACYALYEPVCGSDMSTYANECTLCMKIREGGHNIKIIRNGPCGG
With B3 the “nucleus count in an outer nuclear layer” value [1, 5] was “suppressed a decrease in nucleus count in an outer nuclear layer”.

B4: H308: SPINK2 mutant HTRA1-inhibiting peptide, amino acid sequence SEQ ID NO: 9 (FIG. 21) (protein)
chain: DPQFGLFSKYRTPNCSDHAGMACVALYEPVCGSDMSTYENECVLCMKIREGGHNIKIIRNGPCGG
For B4, the “nucleus count in an outer nuclear layer” value ([1]; 5 μL of 0.04 mg/mL or 0.2 mg/mL intravitreally immediately before light exposure, vs normal saline) was “effect of suppressing the decrease in nucleus count in an outer nuclear layer was confirmed”, the “hypertrophy of RPE cells: average area of RPE cells” value [4] was “exhibited a suppressive effect on the hypertrophy of RPE cells” and the “hypertrophy of RPE cells: number of RPE cells having a cell area of 1500 μm^2 or larger” value [4] was “exhibited a suppressive effect on the hypertrophy of RPE cells”.

B5: wild-type SPINK2: human serine protease inhibitor Kazal-type 2, 7 kDa, SEQ ID NO: 1 (FIG. 13); control (protein, listed as Homo sapiens)
chain: DPQFGLFSKYRTPNCSQYRLPGCPRHFNPVCGSDMSTYANECTLCMKIREGGHNIKIIRNGPC
B5 was tested, and the “HTRA1 (cat) inhibitory activity (in words)” value (HTRA1 (cat)) was “exhibited no HTRA1 inhibitory activity”.
